Test results published in article PMC9543379, “Dihydroxy‐Acid Dehydratases From Pathogenic Bacteria: Emerging Drug Targets to Combat Antibiotic Resistance” (Chemistry (Weinheim an Der Bergstrasse, Germany), 2022).

What was measured:
[1] = test system: T1, CC(C)(O)C(O)C(=O)O; test: Michaelis-Menten kinetics (Km), DNPH assay; format: biochemical, Campylobacter jejuni; conditions: [4Fe-4S] cluster, Mg2+ active site
T1 construct: hexa-histidine tag at the N-terminal, pET-28a

[2] = test system: T1, CC(C)(O)C(O)C(=O)O; test: Michaelis-Menten kinetics (Km), DNPH assay; format: biochemical, Staphylococcus aureus; conditions: [4Fe-4S] cluster, Mg2+ active site

For “CjDHAD (dihydroxy-acid dehydratase) (Campylobacter jejuni subsp. jejuni NCTC 11168 = ATCC 700819)”, the Km [1] was 820 µM, the kcat [1] was 6.5 s⁻¹ and the kcat/Km [1] was 7930 M⁻¹ s⁻¹.

Substance “SaDHAD (dihydroxy-acid dehydratase) (Staphylococcus aureus subsp. aureus NCTC 8325)” has a Km [2] of 1100 µM, a kcat [2] of 2.1 s⁻¹ and a kcat/Km [2] of 1910 M⁻¹ s⁻¹.
